In publication PMC3374083 (Cell Death and Differentiation, 2012):

B1: monomeric human Fas receptor extracellular domain (domain or fragment)
chain: QVTDINSKGLELRKTVTTVETQNLEGLHHDGQFCHKPCPPGERKARDCTVNGDEPDCVPCQEGKEYTDKAHFSSKCRRCRLCDEGHGLEVEINCTRTQNTKCRCKPNFFCNSTVCEHCDPCTKCEHGIIKECTLTSNTKCKEEGSRSN
B2: human Fas ligand, recombinant (ligand)
chain: QIGHPSPPPEKKELRKVAHLTGKSNSRSMPLEWEDTYGIVLLSGVKYKKGGLVINETGLYFVYSKVYFRGQSCNNLPLSHKVYMRNSKYPQDLVMMEGKMMSYCTTGQMWARSSYLGAVFNLTSADHLYVNVSELSLVNFEESQTFFGLYKL

Tests used:
[1] = molecular target: B2; assay: SPR
[2] = molecular target: B1; assay: cell-based or functional assay
[3] = molecular target: B1; assay: cell-based or functional assay; remark: listed apart in the source

Binder: B1
- Kd [1]: 14 nM

Binder: B2
- DNA fragmentation (oligonucleosomes in the cytosol) in Jurkat cells, 8 h, EC50 [2]: 2.8 nM
- Jurkat cell killing (cell-viability assay), EC50 [3]: 7.1 nM
